Substitutions are numbered along the chain they refer to.
Key:
[1] = biological target: T1, cynomolgus Nectin-4 extracellular domain (ECD) with C-terminal His6 (cynomolgus, UniProt Q96NY8 32-349 (human entry)); assay: SPR (Biacore 8K), DRUG B captured on Protein A chip, nectin-4-ECD as analyte, single-cycle kinetics, 1:1 fit, 25° C; 25° C., cynomolgus nectin-4-ECD
T1 construct: also called Cyno Nectin-4-ECD; cynomolgus nectin-4-ECD
T1 chain: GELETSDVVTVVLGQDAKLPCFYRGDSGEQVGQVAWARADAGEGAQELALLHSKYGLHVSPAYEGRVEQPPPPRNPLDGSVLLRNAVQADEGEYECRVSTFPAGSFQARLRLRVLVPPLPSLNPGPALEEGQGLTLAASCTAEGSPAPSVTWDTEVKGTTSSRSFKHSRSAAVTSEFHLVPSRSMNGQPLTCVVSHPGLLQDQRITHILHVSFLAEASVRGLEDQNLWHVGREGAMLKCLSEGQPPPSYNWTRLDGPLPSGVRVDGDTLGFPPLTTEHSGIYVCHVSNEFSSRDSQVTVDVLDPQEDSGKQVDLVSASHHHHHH

[2] = biological target: T1, cynomolgus Nectin-4 extracellular …; assay: SPR (Biacore 8K), DRUG B captured on Protein A chip, nectin-4-ECD as analyte, single-cycle kinetics, 1:1 fit, 37° C; 37° C., cynomolgus nectin-4-ECD
[3] = biological target: T2, hFcγIa (human, UniProt P12314 16-292); assay: SPR (Biacore 8K), 25° C, antibody captured on nectin-4-coated chip, receptor ECD as analyte, single-cycle kinetics, 1:1 fit
T2 construct: extracellular domain; also called hFcγRI; CD64
T2 sequence (P12314 16-292): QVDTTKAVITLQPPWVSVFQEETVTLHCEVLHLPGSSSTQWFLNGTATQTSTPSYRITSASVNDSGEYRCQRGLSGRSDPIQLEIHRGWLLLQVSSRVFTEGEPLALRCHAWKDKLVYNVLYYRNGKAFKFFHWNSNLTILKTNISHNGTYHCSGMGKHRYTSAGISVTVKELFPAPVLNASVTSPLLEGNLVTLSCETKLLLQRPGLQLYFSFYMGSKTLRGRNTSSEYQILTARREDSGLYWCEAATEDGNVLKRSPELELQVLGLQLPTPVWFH
Source text: (§1) The data was processed and analyzed with Biacore 8K Evaluation Software Version 3.0.12.15655 (Cytiva, Global Life Sciences Solutions USA LLC, Marlborough, MA). Reference responses from flow cell 1 were subtracted from the active responses from flow cell 2 to obtain the subtracted data (2-1). The responses from the nearest buffer blank injection were then subtracted from the reference subtracted data (2-1) to yield double-referenced data. For hFcγRI, these double-reference data were fit to a simple 1:1 Langmuir binding model with mass transport to determine the apparent association (ka) and dissociation rate constants (kd). The apparent equilibrium dissociation constant or affinity constant was then calculated based on their ratio as (KD=kd/ka). Binding affinity KD values for all the other hFcγR interactions (hFcγIIa-H131, hFcγIIa-R131, hFcγIIIa, and FcγIIIaV158F) were analyzed using a “steady state” (or “equilibrium binding”) method due to their fast on rates and fast off rates.

[4] = biological target: T3, hFcγIIa-R131 (human, UniProt P12318 36-218); assay: SPR (Biacore 8K), 25° C, antibody captured on nectin-4-coated chip, receptor ECD as analyte, steady-state analysis
T3 construct: extracellular domain; Position 131 is the customary mature-protein numbering, not the precursor numbering of the database entry; also called hFcγRIIa (CD32a) R131
T3 sequence (looked up): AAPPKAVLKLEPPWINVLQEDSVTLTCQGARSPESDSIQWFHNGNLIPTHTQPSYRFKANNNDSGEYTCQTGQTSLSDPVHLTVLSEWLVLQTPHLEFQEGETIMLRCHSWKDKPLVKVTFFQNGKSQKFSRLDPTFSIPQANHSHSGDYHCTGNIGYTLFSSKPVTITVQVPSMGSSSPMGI
Source text: as §1

[5] = biological target: T4, hFcγIIa-H131 (human, UniProt P12318 34-217); assay: as above
T4 construct: extracellular domain; H at position 131 of the H/R131 polymorphism; also called hFcγRIIa (CD32a) H131
T4 sequence (looked up): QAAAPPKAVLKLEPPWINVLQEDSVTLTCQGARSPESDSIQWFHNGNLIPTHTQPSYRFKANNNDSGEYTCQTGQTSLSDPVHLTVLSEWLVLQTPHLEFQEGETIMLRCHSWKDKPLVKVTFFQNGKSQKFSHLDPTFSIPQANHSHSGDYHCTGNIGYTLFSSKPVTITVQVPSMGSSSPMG
Source text: as §1

[6] = biological target: T5, human Nectin-4 extracellular domain (ECD) with C-terminal His6 (human, UniProt Q96NY8 32-349); assay: SPR (Biacore 8K), DRUG B captured on Protein A chip, nectin-4-ECD as analyte, single-cycle kinetics, 1:1 fit; temperature dropped in the text, 25° C by context; 25° C. (by context; temperature dropped in the text), human nectin-4-ECD
T5 construct: also called human Nectin-4-ECD; human nectin-4 ECD
T5 sequence: T1 chain with A39V, V230I
Protocol: (§2) Kinetic injection method used was “single cycle kinetics” (also known as “kinetic titration”) (Karlsson et al. (2006) Analytical Biochemistry. 349(1):136-147).
(§3) The interactions of DRUG B, i.e., an anti-Nectin-4 monoclonal antibody, with the extracellular domain (ECD) of human nectin-4 were analyzed by flowing nectin-4-ECD over DRUG B captured (200-400 RUs) on Biacore Series S Sensor Chip Protein A. DRUG B, at ˜1 μg/mL concentration was captured in flow cell 2 of each channel at flow rate 10 μL/min for 60 seconds (s) contact time while buffer was used for Flow cell 1 respectively. The human nectin-4-ECD analytes were prepared as a 5-membered 3-fold dilution series with top nominal concentration of 300 nM, and each analyte series was injected in order of ascending concentration using a single-cycle kinetics method. Association and dissociation times were monitored for 120s and 1800s, respectively, at 30 μL/min flow rate. The surfaces were regenerated with 75 mM phosphoric acid at pH 1.6 using two pulses of 15s at 30 μL/min flow rate.
(§4) To analyze the data, the following processing steps were applied. Reference responses from flow cell 1 (reference surface) were subtracted from the active responses from flow cell 2 (reaction surface) to obtain the subtracted data (2-1). […]

[7] = biological target: T6, hFcRn ECD protein (human, UniProt P55899 24-297; P61769 21-119); assay: SPR (Biacore 8K), 25° C, PBS pH 5.8, antibody captured on nectin-4-coated chip, hFcRn ECD as analyte, steady-state analysis
T6 construct: extracellular domain; also called human FcRn; neonatal Fc receptor
T6 sequence (P55899 24-297 limits assumed, chain 1 of 2): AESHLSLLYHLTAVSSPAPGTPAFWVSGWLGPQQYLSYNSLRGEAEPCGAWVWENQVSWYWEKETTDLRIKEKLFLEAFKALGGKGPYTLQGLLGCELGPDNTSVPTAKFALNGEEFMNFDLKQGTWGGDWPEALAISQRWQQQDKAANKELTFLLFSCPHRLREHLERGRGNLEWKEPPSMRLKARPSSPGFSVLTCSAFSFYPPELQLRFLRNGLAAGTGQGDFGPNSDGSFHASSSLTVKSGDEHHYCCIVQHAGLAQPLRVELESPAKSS
T6 sequence (P61769 21-119 limits assumed, chain 2 of 2): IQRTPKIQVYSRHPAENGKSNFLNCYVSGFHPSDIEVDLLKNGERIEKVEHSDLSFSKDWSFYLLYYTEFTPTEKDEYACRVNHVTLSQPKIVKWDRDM
Protocol: (§5) All experiments were performed at 25° C. using a Biacore 8K equipped with S-type sensor chips and the kinetics data analyses were done using the Biacore Insight Evaluation Software. The running buffer was PBS pH 5.8 with 0.01% Tween-20 for hFcRn interactions and the running buffer for capture was HBS-EP+. Analyte hFcRn ECD protein was used at its nominal concentrations. A “single cycle kinetics” injection mode was used.
(§6) The interactions of DRUG B and DRUG C with hFcRn were analyzed by flowing the hFcRn ECD protein over DRUG B or DRUG C captured on a nectin-4-coated CMS chip. Up to 2400 RU of human nectin-4 ECD were immobilized on both flow cells (1 and 2) of a CMS chip using amine chemistry following Cytiva amine coupling kit instructions. DRUG B or DRUG C were captured on flow cell 2 of each channel for 120 seconds at 10 μL/min at […] in HBS-EP+(100-200 RUs) in a surface preparation method. The hFcRn run was done in PBS pH 5.8 with 0.01% Tween-20. […] Association and dissociation times were monitored for 120s and 600s, respectively. […]
(§7) The data was processed and analyzed with Biacore 8K Evaluation Software Version 3.0.12.15655 (Cytiva, Global Life Sciences Solutions USA LLC, Marlborough, MA). […] Binding affinity KD values were analyzed using a “steady state” (or “equilibrium binding”) method due to their fast on rates and fast off rates.

[8] = biological target: T5, human Nectin-4 extracellular domain …; assay: SPR (Biacore 8K), DRUG B captured on Protein A chip, nectin-4-ECD as analyte, single-cycle kinetics, 1:1 fit, 37° C; 37° C., human nectin-4-ECD
Protocol: as §2, §3, §4

[9] = biological target: T5, human Nectin-4 extracellular domain …; assay: SPR, capture on chip with immobilized human nectin-4 ECD (FcγR runs)
[10] = biological target: T6, hFcRn ECD protein; assay: SPR (Biacore 8K), 25° C, PBS pH 5.8, ADC captured on nectin-4-coated chip, hFcRn ECD as analyte, steady-state analysis
Protocol: as §5, §6, §7

[11] = biological target: T3, hFcγIIa-R131; assay: SPR (Biacore 8K), 25° C, ADC captured on nectin-4-coated chip, receptor ECD as analyte, steady-state analysis
Source text: as §1

[12] = biological target: T4, hFcγIIa-H131; assay: as above
Source text: as §1

[13] = biological target: T2, hFcγIa; assay: SPR (Biacore 8K), 25° C, ADC captured on nectin-4-coated chip, receptor ECD as analyte, single-cycle kinetics, 1:1 fit
Source text: as §1

B1: DRUG B (enfortumab similar antibody that specifically binds human nectin-4) (antibody, human IgG1, kappa)
heavy: not shown
light: DIQMTQSPSSVSASVGDRVTITCRASQGISGWLAWYQQKPGKAPKFLIYAASTLQSGVPSRFSGSGSGTDFTLTISSLQPEDFATYYCQQANSFPPTFGGGTKVEIKRTVAAPSVFIFPPSDEQLKSGTASVVCLLNNFYPREAKVQWKVDNALQSGNSQESVTEQDSKDSTYSLSSTLTLSKADYEKHKVYACEVTHQGLSSPVTKSFNRGEC
notes: Expressed in Expi293F cells, about 99% monomer; also called enfortumab similar Ab; Enfortumab similar mAb
What does the source list for B1?
Kd [1]: ~22.6 nM; Kd [2]: ~50.7 nM; Kd [3]: 0.056 nM; Kd [4]: 783 nM; Kd [5]: 772 nM; Kd [6]: ~14.5 nM; Kd [7]: 767 nM; Kd [8]: ~36.3 nM

B2: DRUG C (enfortumab vedotin similar antibody-drug conjugate) (antibody, human IgG1, kappa)
heavy: not shown
light: B1 light
modifications: MC-Val-Cit-PAB-MMAE linker-payload conjugated via interchain cysteines of the antibody; average drug-to-antibody ratio 3.85:1
notes: DRUG B conjugated to MC-Val-Cit-PAB-MMAE; also called enfortumab vedotin similar ADC; copies: 2 + 2
Does B2 bind [9]?
Result: binds

And the Kd [10]?
Its Kd is 812 nM.

What about the Kd [11] of the same binder?
The Kd was 846 nM.

And the Kd [12]?
Its Kd is 921 nM.

And the Kd [13]?
Its Kd is 0.091 nM.
